Experimental data from US20110300138A1 (published 2011).
One block for each substance: values may come before it.

Assays:
[1] = molecular target: TSH receptor (full length human TSHR) coated on tubes (human) (UniProt P16473); assay: 125I-TSH binding inhibition, TSHR coated tubes; 1.0 units/L, in assay buffer
[2] = molecular target: TSH receptor (full length human TSHR) coated on tubes (human) (UniProt P16473); assay: 125I-TSH binding inhibition, TSHR coated tubes; 40.0 units/L, in assay buffer
[3] = molecular target: TSH receptor (full length human TSHR) coated on tubes (human) (UniProt P16473); assay: 125I-TSH binding inhibition, TSHR coated tubes; 40.0 units/L, in serum
[4] = molecular target: TSH receptor (full length human TSHR) coated on tubes (human) (UniProt P16473); assay: 125I-TSH binding inhibition, TSHR coated tubes; 0.5 units/L, in assay buffer
[5] = molecular target: TSH receptor (full length human TSHR) coated on tubes (human) (UniProt P16473); assay: 125I-TSH binding inhibition, TSHR coated tubes; 8.0 units/L, in serum
[6] = molecular target: TSH receptor (full length human TSHR) coated on tubes (human) (UniProt P16473); assay: 125I-TSH binding inhibition, TSHR coated tubes; 0.125 units/L, in assay buffer
[7] = molecular target: TSH receptor (full length human TSHR) coated on tubes (human) (UniProt P16473); assay: 125I-TSH binding inhibition, TSHR coated tubes; 8.0 units/L, in assay buffer
[8] = molecular target: TSH receptor (full length human TSHR) coated on tubes (human) (UniProt P16473); assay: 125I-TSH binding inhibition, TSHR coated tubes; 0.25 units/L, in serum
[9] = molecular target: TSH receptor (full length human TSHR) coated on tubes (human) (UniProt P16473); assay: 125I-TSH binding inhibition, TSHR coated tubes; 2.0 units/L, in serum
[10] = molecular target: TSH receptor (full length human TSHR) coated on tubes (human) (UniProt P16473); assay: 125I-TSH binding inhibition, TSHR coated tubes; 1.0 units/L, in serum
[11] = molecular target: TSH receptor (full length human TSHR) coated on tubes (human) (UniProt P16473); assay: 125I-TSH binding inhibition, TSHR coated tubes; 4.0 units/L, in serum
[12] = molecular target: TSH receptor (full length human TSHR) coated on tubes (human) (UniProt P16473); assay: 125I-TSH binding inhibition, TSHR coated tubes; 0.125 units/L, in serum
[13] = molecular target: TSH receptor (full length human TSHR) coated on tubes (human) (UniProt P16473); assay: 125I-TSH binding inhibition, TSHR coated tubes; 0.5 units/L, in serum
[14] = molecular target: TSH receptor (full length human TSHR) coated on tubes (human) (UniProt P16473); assay: 125I-TSH binding inhibition, TSHR coated tubes; 4.0 units/L, in assay buffer
[15] = molecular target: TSH receptor (full length human TSHR) coated on tubes (human) (UniProt P16473); assay: 125I-TSH binding inhibition, TSHR coated tubes; 0.25 units/L, in assay buffer
[16] = molecular target: TSH receptor (full length human TSHR) coated on tubes (human) (UniProt P16473); assay: 125I-TSH binding inhibition, TSHR coated tubes; 2.0 units/L, in assay buffer
[17] = molecular target: TSH receptor (TSHR), full length human, coated on tubes (human) (UniProt P16473); assay: binding of 125I-TSH to TSHR coated tubes, in assay buffer, no competitor
[18] = molecular target: TSH receptor (TSHR), full length human, coated on tubes (human) (UniProt P16473); assay: as above; remark: listed apart in the source
[19] = molecular target: TSH receptor (full length human TSHR) coated on tubes (human) (UniProt P16473); assay: 125I-TSH binding to TSHR coated tubes, in assay buffer, no inhibitor
[20] = molecular target: TSH receptor (TSHR), full length human, coated on tubes (human) (UniProt P16473); assay: binding of 125I-TSH to TSHR coated tubes, in HBD serum pool, no competitor
[21] = molecular target: TSH receptor (full length human TSHR) coated on tubes (human) (UniProt P16473); assay: 125I-TSH binding to TSHR coated tubes, in HBD serum pool, no inhibitor
[22] = molecular target: TSHR coated tubes (full length TSHR) (human) (UniProt P16473); assay: 125I-TSH binding to TSHR coated tubes in assay buffer only (no competitor)

- Inhibition of binding (%) [1]: 14%
- Inhibition of binding (%) [2]: 91%
- Inhibition of binding (%) [3]: 90.9%
- Inhibition of binding (%) [4]: 3.1%
- Inhibition of binding (%) [5]: 65.3%
- Inhibition of binding (%) [6]: 0%
- Inhibition of binding (%) [7]: 62.7%
- Inhibition of binding (%) [8]: 0%
- Inhibition of binding (%) [9]: 18.2%
- Inhibition of binding (%) [10]: 8.1%
- Inhibition of binding (%) [11]: 34.8%
- Inhibition of binding (%) [12]: 0%
- Inhibition of binding (%) [13]: 5.6%
- Inhibition of binding (%) [14]: 49%
- Inhibition of binding (%) [15]: 0%
- Inhibition of binding (%) [16]: 26.2%
Substance: WHO reference preparation NIBSC 90/672

- ^125I-TSH binding (%) [17]: 11%
- ^125I-TSH binding (%) [18]: 13.4%
- % binding [19]: 10.8%
- ^125I-TSH binding (%) [20]: 11.5%
- % binding [21]: 12.4%
- % of ^125I-TSH binding [22]: 12.4%
Substance: ^125I-TSH (ligand)
